In this test the target is IgG1-S4497 (human). The experiment in a line: cell-based or functional assay.

The values that follow come from US20200123237A1.

B1: IgG1-S4497 (antibody, not shown: a dimerising Fc or GST)
heavy: EVQLVESGGGLVQPGGSLRLSCSASGFSFNSFWMHWVRQVPGKGLVWISFTNNEGTTTAYADSVRGRFIISRDNAKNTLYLEMNNLRGEDTAVYYCARGDGGLDDWGQGTLVTVSS
light: DIQLTQSPDSLAVSLGERATINCKSSQSIFRTSRNKNLLNWYQQRPGQPPRLLIHWASTRKSGVPDRFSGSGFGTDFTLTITSLQAEDVAIYYCQQYFSPPYTFGQGTKLEIK
With B1, the EC50 of C3b deposition on Wood 46, purified classical pathway system is 0.668 µg/mL; the EC50 of C4b deposition on Wood 46, purified classical pathway system was found to be 0.886 µg/mL; the EC50 of neutrophil-mediated phagocytic uptake of Wood 46, NHS devoid of IgG and IgM came out at 0.144 µg/mL; the EC50 of neutrophil-mediated phagocytic uptake of Wood 46, intact NHS turned out to be 0.096 µg/mL.
